Non-standard residues stand in square brackets, D forms with d. Primed or numbered codes have the meaning given here. No end group written: not given here. PEG2′ = PEG2 tether (Merck, 20 atoms)
Experiments:
[1] = molecular target: T1, bovine carbonic anhydrase II (bCAII) (Bos taurus, UniProt P00921); assay: Surface Plasmon Resonance (SPR) of peptide ligands on immobilized bCAII; assay type: binding; conditions: for response in SPR sensogram, in words: compared with other peptide ligands; for maximum response (Rmax): highest concentration (1.0 μM), bCAII immobilized to RU of 1000, FIG. 14; for association-dissociation pattern in SPR sensogram: in words; for interaction with bCAII: acetylated peptides, FIG. 9
Source text: Validation by SPR. The peptide ligands were investigated for their binding affinity towards bCAII using SPR as a validation tool. The target marker was immobilized onto CM5 sensor chip to a response unit (RU) of 1000 in a Biacore T100 system. Each peptide solution of a series of concentrations was eluted through the surface of the chip to observe the response as well as the dissociation pattern mediated by treatment of glycine-hydrochloride. As depicted in FIG. 14, the maximum responses (Rmax) by the peptide ligands increased in a stepwise fashion from the hexamer-2 to the decamers and then to the tetradecamer (8→40→140) at the highest concentration (1.0 μM).
Surface Plasmon Resonance (SPR) experiments to measure affinity of the re-synthesized peptide ligands. Affinity measurements were performed using a Biacore T100 system and research grade CM5 sensor chips (GE Heathcare). The instrument was primed with HBS-EP+ (GE Heathcare) buffer. Flow cell 1 (or 3) was used as a reference to subtract nonspecific binding, drift, and the bulk refractive index, while flow cell 2 (or 4) was immobilized with the target biomarker (bCAII) following standard procedures. A 1:1 mixture of 0.4 M EDC and 0.1 M NHS was used to activate flow cell 2 (or 4), and 0.1 mg/mL bCAII solution was injected. Blocking of the remaining activated groups was done with a 1 M solution of ethanolamine (pH 8.5). bCAII was immobilized onto the sensor chip surface by […] (RU). The instrument was then primed using running buffer (HBS-EP+). Each of the 6mer ligand candidates identified were dissolved in HBS-EP+buffer to produce 5 μM peptide stock solutions for each peptide, which were serially diluted by a factor of 2 to produce a concentration series down to 2 nM. For a given affinity measurement, these series of peptide solutions successively were injected into flow cell 2 (or 4) for […] of contact time, 5 min of dissociation time, and […] of stabilization time using a flow rate of 100 μL/min at 25° C. Flow cell 2 (or 4) was regenerated by glycine 2.5 (GE Healthcare) after injection of each peptide solution.

[2] = molecular target: T1, bovine carbonic anhydrase II (bCAII); assay: Dot blot assay of biotin-conjugated peptide ligands on deposited bCAII; assay type: binding; conditions: for dot blot affinity/potency towards bCAII, in words: serial reduction of deposited bCAII, peptide 0.5 μM, compared with precursor
Procedure: Dot blot assays to measure affinity of the re-synthesized peptide ligands conjugated to biotin. […] A solution of bCAII was prepared as 10 mg/mL stocks in PBS buffer (pH 7.4). A serial dilution of the mother solution was applied to a nitrocellulose membrane, typically ranging from 2 μg to 5 ng per spot. The membrane was blocked at room temperature for 2 h in 5% nonfat milk/TBS-T. The membrane was then washed with TBS-T. […] After washing three times with TBS-T for 10 min, 1:3000 streptavidin-HRP (Abcam) prepared in 0.5% milk/TBS-T was added to the membrane and incubated for 2 h. After washing three times with TBS-T for 10 min, the membrane was treated with chemiluminescent reagents (Amersham ECL plus Western blotting detection reagents, GE Healthcare) and then immediately developed on film.

[3] = molecular target: bovine carbonic anhydrase II (bovine) (UniProt P00921); assay: dot blot, biotinylated peptide on spotted bCAII
[4] = molecular target: human carbonic anhydrase II (hCAII) (Homo sapiens, UniProt P00918); assay: Dot blot experiments of peptide ligands towards hCAII; assay type: binding; conditions: FIG. 9
[5] = molecular target: bovine carbonic anhydrase II (bovine) (UniProt P00921); assay: dot blot, peptide with biotin at C-terminus on spotted bCAII

T1 sequence (P00921 whole entry): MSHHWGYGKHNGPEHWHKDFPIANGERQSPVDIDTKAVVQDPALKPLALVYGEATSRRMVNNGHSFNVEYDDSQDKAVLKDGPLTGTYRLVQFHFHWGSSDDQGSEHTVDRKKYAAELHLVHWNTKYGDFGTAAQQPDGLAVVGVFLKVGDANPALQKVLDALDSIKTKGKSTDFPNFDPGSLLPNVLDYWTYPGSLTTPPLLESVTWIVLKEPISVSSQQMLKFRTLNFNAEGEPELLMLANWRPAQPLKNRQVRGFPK
Chain of bovine carbonic anhydrase II (bovine) (P00921 2-260 limits assumed): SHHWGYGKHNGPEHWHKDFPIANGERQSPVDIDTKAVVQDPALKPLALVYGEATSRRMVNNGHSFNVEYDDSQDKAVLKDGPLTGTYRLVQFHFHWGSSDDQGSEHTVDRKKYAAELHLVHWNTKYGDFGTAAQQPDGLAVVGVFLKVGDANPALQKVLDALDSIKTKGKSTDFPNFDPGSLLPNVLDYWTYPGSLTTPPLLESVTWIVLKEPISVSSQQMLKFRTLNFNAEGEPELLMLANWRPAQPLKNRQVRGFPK

In the case of “ifvykr ([dI][dF][dV][dY][dK][dR]) [hexamer-2]”, the “response in SPR sensogram, in words” value [1] is reported as “even better property than hexamer-1”, the “maximum response (Rmax)” value [1] is reported as 8 RU and the “dot blot affinity/potency towards bCAII, in words” value [2] is reported as “even better property than hexamer-1”.

In the case of “ryrr-ifvykr ([dR][dY][dR][dR][dI][dF][dV][dY][dK][dR]) [decamer-3, 10]”, the “dot blot affinity/potency towards bCAII, in words” value [2] is reported as “most prominent”.

With “ryrr-ifvykr-wryp ([dR][dY][dR][dR][dI][dF][dV][dY][dK][dR][dW][dR][dY][dP]-{PEG2′-biotin}) [tetradecamer-N2C, 12]” the “maximum response (Rmax)” value [1] was 140 RU, the “association-dissociation pattern in SPR sensogram” value [1] was “more antibody-like pattern” and the “dot blot affinity compared with the two precursors decamer-N2 and decamer-C2” value ([2]; peptide ligand 0.1 μM) was “not dramatically improved”. The “dot blot potency compared with initial anchor hexamer-2” value ([2]; peptide ligand 0.1 μM) was “far more potent”.

For decamer-3 (ryrr-ifvykr) (peptide), the lowest amount of deposited bCAII giving a developed spot [3] was 20 ng.

For “kvtflhrywf (Ac-[dK][dV][dT][dF][dL][dH][dR][dY][dW][dF]-NH2) [decamer-N1, 8, D-amino acids, acetylated]”, the “interaction with bCAII” value [1] was “interacting with bCAII”, the “response in SPR sensogram, in words” value [1] was “higher response unit (RU)” and the “association-dissociation pattern in SPR sensogram” value [1] was “much more antibody-like behavior”. The “dot blot affinity/potency towards bCAII, in words” value [2] was “more potent” and the “dot blot potency towards hCAII compared with bCAII” value [4] was “similarly potent”.

In the case of “ifvykr-wryp ([dI][dF][dV][dY][dK][dR][dW][dR][dY][dP]) [decamer-4, 11]”, the “dot blot affinity/potency towards bCAII, in words” value [2] is reported as “most prominent”.

For decamer-4 (ifvykr-wryp) (peptide), the lowest amount of deposited bCAII giving a developed spot [5] was 20 ng.

lhrywf [hexamer-1] was tested, and the “interaction with bCAII” value [1] was “interacting with bCAII”, the “affinity (KD) in a Surface Plasmon Resonance (SPR) study” value ([1]; first-generation anchor peptide against bCAII) was “a few” and the “dot blot potency towards hCAII compared with bCAII” value [4] was “more potent”.
